# Assay results published in publication PMC12494543, “Identification of ALKBH6 as a nucleotide demethylase with a distinct substrate preference” (The Journal of Biological Chemistry, 2025).
# B1: ALKBH6 (Homo sapiens) (protein)
# chain: MEEQDARVPALEPFRVEQAPPVIYYVPDFISKEEEEYLLRQVFNAPKPKWTQLSGRKLQNWGGLPHPRGMVPERLPPWLQRYVDKVSNLSLFGGLPANHVLVNQYLPGEGIMPHEDGPLYYPTVSTISLGSHTVLDFYEPRRPEDDDPTEQPRPPPRPTTSLLLEPRSLLVLRGPAYTRLLHGIAAARVDALDAASSPPNAAACPSARPGACLVRGTRVSLTIRRVPRVLRAGLLLGK
# notes: His-tag; made in house
# Assays:
# [1] = substrate: C[n+]1cn([C@@H]2O[C@H](COP(=O)(O)O)[C@@H](O)[C@H]2O)c2nc(N)[nH]c(=O)c21; assay: FDH-coupled formaldehyde release demethylation assay; format: biochemical, human; conditions: other: substrate of ALKBH6, Michaelis-Menten; 37.0 °C
# Description: (§1) NMPs including 1meAMP (Jena Bioscience, NU-1029-1,) 7meGMP (Jena Bioscience, NU-1135S), 6me-AMP (Sigma, M2780) were purchased. N-methylated deoxy-NMPs were prepared by methylating chemically synthesized 30-mer oligonucleotide containing either dA, dG, dC, or dT by MMS (5%, v/v) (0.59 M) MMS (Sigma, 129925) and purified as described before ([17]). The oligonucleotides were digested with nuclease P1 (NEB) at 37 °C for 4 h to produce deoxy-NMPs. After heat inactivating the nuclease, dNMPs were purified by HPLC and used for the demethylation reaction. N-methylated NMPs were purified similarly, using RNA as the starting material. For the demethylation reaction, ALKBH6 (1 μM) and me-dNMPs (1 mM) were mixed in the dioxygenase reaction buffer and incubated at 37 °C for 30 min. Formaldehyde release was detected by FDH-coupled DNA repair assay as described before ([32], [33]). Briefly, 1 mM NAD+ and 0.01 U FDH were added to the dioxygenase reaction buffer containing methylated nucleotide and ALKBH6. NADH generated was detected by the characteristic absorption peak (340 nm) using a 96-well multimode reader (Synergy, Biotek Instrument). Formaldehyde production was quantified from the standard curve and the initial velocities were determined using various substrate concentrations. The results were plotted and analyzed using GraphPad Prism.
# [2] = substrate: C[n+]1cnc2c(ncn2[C@@H]2O[C@H](COP(=O)(O)O)[C@@H](O)[C@H]2O)c1N; assay: as above; format: biochemical, human; conditions: other: substrate of ALKBH6, Michaelis-Menten; 37.0 °C
# Description: as §1
protein,measurement,setting,value
B1,Km,[1],1.03 µM
same,kcat,[1],0.167 s⁻¹
same,Km,[2],0.96 µM
same,kcat,[2],0.18 s⁻¹
